Target: SARS-CoV-2 WT RBD protein (SARS-CoV-2 wild type, UniProt P0DTC2)
Assay: ELISA

B1: rabbit monoclonal antibody (RmAb) 9H1 (antibody, V domains shown)
VH: QSVEESGGRLVTPGTPLTLTCTVSGFSLSRYAMSWVRQAPGKGLEWIGIIVDSGHTAYASWAKGRFTISRTSTTVDLKMTSLTTEDTATYFCARETGGGAFYVFEFWGPGTVVTVSS
VL: QVLTQTPSSVSAAVGGTVTINCQASEDIYDNLVWYQQKPGQPPKLLIYDASTLAFGVSSRFRGSGSGTHFTLTMRDVQCDDAATYYCQGEFSCSSGDCTAFGGGTEVVVK
  binding result: binds

From article PMC10072977 (Biochemical and Biophysical Research Communications, 2023)
